The source of these data is patent US20200071378A1.

Assay [1] concerns the target murine VISTA expressed on EL4 cells (EL4-mVISTA) (murine) (UniProt Q9D659). The assay is described as follows: flow cytometry on EL4-mVISTA cells.
Assay [2] deals with murine OX40 expressed on cells (CHOK1-mOX40) (murine) (UniProt P47741). The assay is described as follows: flow cytometry on CHOK1-mOX40 cells. (In general: Flow cytometry measures light scatter and fluorescence of single cells or particles in a stream.)
A further assay addresses hOX40-His (human) (UniProt P43489). In words: SPR (BioRad ProteOn XPR 360) per Example 5; FIG. 5 legend says biolayer interferometry (Octet); hOX40-His as ligand, analyte at 66.7 nM. (BLI is a label-free optical method that tracks binding on a fibre tip over time.)

Chain of hOX40-His (human) (P43489 29-216 limits assumed): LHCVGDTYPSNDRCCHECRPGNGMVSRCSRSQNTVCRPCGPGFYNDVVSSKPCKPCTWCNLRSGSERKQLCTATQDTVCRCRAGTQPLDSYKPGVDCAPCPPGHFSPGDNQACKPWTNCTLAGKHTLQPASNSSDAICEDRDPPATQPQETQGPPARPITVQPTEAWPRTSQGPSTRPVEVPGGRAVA
Chain of murine VISTA expressed on EL4 cells (EL4-mVISTA) (murine) (Q9D659 33-308): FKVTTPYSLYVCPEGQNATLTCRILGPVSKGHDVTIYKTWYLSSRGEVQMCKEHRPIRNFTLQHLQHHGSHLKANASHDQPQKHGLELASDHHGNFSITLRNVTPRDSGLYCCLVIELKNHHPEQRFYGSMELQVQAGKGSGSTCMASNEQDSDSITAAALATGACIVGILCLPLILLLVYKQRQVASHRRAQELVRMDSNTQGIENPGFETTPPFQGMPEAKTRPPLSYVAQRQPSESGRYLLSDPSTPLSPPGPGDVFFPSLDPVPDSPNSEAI
Chain of murine OX40 expressed on cells (CHOK1-mOX40) (murine) (P47741 20-272): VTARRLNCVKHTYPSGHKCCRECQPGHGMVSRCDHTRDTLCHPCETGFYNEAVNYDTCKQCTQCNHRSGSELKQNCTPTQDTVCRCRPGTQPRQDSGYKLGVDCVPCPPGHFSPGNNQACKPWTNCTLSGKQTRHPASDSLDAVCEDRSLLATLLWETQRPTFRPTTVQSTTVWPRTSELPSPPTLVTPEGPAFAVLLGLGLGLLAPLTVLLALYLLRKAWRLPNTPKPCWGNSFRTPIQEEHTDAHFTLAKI

Broadly, the EC50 is the concentration giving half of the maximal effect. High values mean weaker potency, low ones greater potency. For the substance “murine VSIG8-Fc-OX40L chimeric protein (from UniProt Q6P3A4 22-262; P43488 51-198) (Fc fusion)”, the concentration giving a half-maximal response (EC50) is 56 nM in assay [1] and 16 nM in assay [2].
Broadly, the Kd is the free concentration of one partner at which half of the binding sites on the other are occupied at equilibrium, for simple one-to-one binding. A word on the koff: it is the first-order rate constant of dissociation. For orientation: kon means a measure of how fast the partners come together. In the assay with hOX40-His (human), “tavolixumab (an anti-human OX40 antibody)” had a Kd of 0.152 nM, an off-rate (koff) of 5.03e-05 s⁻¹ and a kon of 332000 M⁻¹ s⁻¹.
